We go through three molecules from patent publication US20220389120A1 (GENSUN BIOPHARMA, published 2022).

The test deals with T1, recombinant human Ang2 (Biolegend) (human, UniProt O15123 19-496, limits assumed).
T1 construct: Bought reagent; also called angiopoietin-2
T1 sequence (looked up): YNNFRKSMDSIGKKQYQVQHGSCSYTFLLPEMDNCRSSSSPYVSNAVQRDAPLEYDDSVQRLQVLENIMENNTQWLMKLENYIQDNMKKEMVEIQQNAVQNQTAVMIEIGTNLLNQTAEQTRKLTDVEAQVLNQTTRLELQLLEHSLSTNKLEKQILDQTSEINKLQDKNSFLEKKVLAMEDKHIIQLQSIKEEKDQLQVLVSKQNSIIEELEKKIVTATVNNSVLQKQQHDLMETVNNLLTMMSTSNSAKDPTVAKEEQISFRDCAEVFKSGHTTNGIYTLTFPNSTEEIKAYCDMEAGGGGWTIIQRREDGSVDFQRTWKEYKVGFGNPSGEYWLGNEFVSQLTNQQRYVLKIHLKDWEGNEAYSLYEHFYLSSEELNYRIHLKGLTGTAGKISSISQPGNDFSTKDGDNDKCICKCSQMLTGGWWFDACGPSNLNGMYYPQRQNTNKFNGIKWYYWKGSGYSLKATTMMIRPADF
Put plainly: Tie2-Ang2 blocking ELISA.

Procedure: 96-well assay plates were coated with 0.5 ug/ml of recombinant human Ang2 (Biolegend) in PBS at 4° C. overnight, then blocked with 1% BSA/PBS for 1 hour at room temperature. […] After washing with Wash Buffer, Streptavidin-HRP was added to the plate at 1:200 and incubated for 30 minutes at room temperature.

B1: GS01-A (other)
heavy: QVQLVQSGAEVKKPGASVKVSCKASGYTFTSYYIHWVRQAPGQGLEWMGWIFPGSGNSKYNENFKGRVTLTADTSTSTVYMELSSLRSEDTAVYYCASETYDYGDYWGQGTLVTVSSASTKGPSVFPLAPCSRSTSESTAALGCLVKDYFPEPVTVSWNSGALTSGVHTFPAVLQSSGLYSLSSVVTVPSSSLGTKTYTCNVDHKPSNTKVDKRVESKYGPPCPPCPAPEFLGGPSVFLFPPKPKDTLMISRTPEVTCVVVDVSQEDPEVQFNWYVDGVEVHNAKTKPREEQFNSTYRVVSVLTVLHQDWLNGKEYKCKVSNKGLPSSIEKTISKAKGQPREPQVYTLPPSQEEMGGAQTNFMPMDDLEQRLYEQFILQQGGGGSGGGGSGGGGSGGGGSTNFMPMDDLEQRLYEQFILQQGLETKNQVSLTCLVKGFYPSDIAVEWESNGQPENNYKTTPPVLDSDGSFFLYSRLTVDKSRWQEGNVFSCSVMHEALHNHYTQKSLSLSLGKGGGGSGGGGSGGGGSGGGGSEVQLVESGGGLVQPGGSLRLSCAASGFTISDYWIHWVRQAPGKGLEWVAGITPAGGYTYYADSVKGRFTISADTSKNTAYLQMNSLRAEDTAVYYCARFVFFLPYAMDYWGQGTLVTVSSGGGGSGGGGSGGGGSGGGGSDIQMTQSPSSLSASVGDRVTITCRASQDVSTAVAWYQQKPGKAPKLLIYSASFLYSGVPSRFSGSGSGTDFTLTISSLQPEDFATYYCQQGYGNPFTFGQGTKVEIK
light: DIQMTQSPSFLSASVGDRVTITCKASQNVGTNVAWYQQKPGKAPKALIYSASYRYSGVPSRFSGSGSGTEFTLTISSLQPEDFATYYCQQYYSYPYTFGQGTKLEIKRTVAAPSVFIFPPSDEQLKSGTASVVCLLNNFYPREAKVQWKVDNALQSGNSQESVTEQDSKDSTYSLSSTLTLSKADYEKHKVYACEVTHQGLSSPVTKSFNRGEC
notes: Trispecific PD-1/VEGF/Ang2 antagonist on an IgG4 Fc; also called trispecific construct GS01-A
Regarding B1, the binding result is given as “binds”.

B2: GS01-T (other)
heavy: QVQLVQSGAEVKKPGASVKVSCKASGYTFTSYYIHWVRQAPGQGLEWMGWIFPGSGNSKYNENFKGRVTLTADTSTSTVYMELSSLRSEDTAVYYCASETYDYGDYWGQGTLVTVSSASTKGPSVFPLAPCSRSTSESTAALGCLVKDYFPEPVTVSWNSGALTSGVHTFPAVLQSSGLYSLSSVVTVPSSSLGTKTYTCNVDHKPSNTKVDKRVESKYGPPCPPCPAPEFLGGPSVFLFPPKPKDTLMISRTPEVTCVVVDVSQEDPEVQFNWYVDGVEVHNAKTKPREEQFNSTYRVVSVLTVLHQDWLNGKEYKCKVSNKGLPSSIEKTISKAKGQPREPQVYTLPPSQEEMGGAQQEECEWDPWTCEHMGSGSATGGSGSTASSGSGSATHQEECEWDPWTCEHMGGTKNQVSLTCLVKGFYPSDIAVEWESNGQPENNYKTTPPVLDSDGSFFLYSRLTVDKSRWQEGNVFSCSVMHEALHNHYTQKSLSLSLGKGGGGSGGGGSGGGGSGGGGSEVQLVESGGGLVQPGGSLRLSCAASGFTISDYWIHWVRQAPGKGLEWVAGITPAGGYTYYADSVKGRFTISADTSKNTAYLQMNSLRAEDTAVYYCARFVFFLPYAMDYWGQGTLVTVSSGGGGSGGGGSGGGGSGGGGSDIQMTQSPSSLSASVGDRVTITCRASQDVSTAVAWYQQKPGKAPKLLIYSASFLYSGVPSRFSGSGSGTDFTLTISSLQPEDFATYYCQQGYGNPFTFGQGTKVEIK
light: DIQMTQSPSFLSASVGDRVTITCKASQNVGTNVAWYQQKPGKAPKALIYSASYRYSGVPSRFSGSGSGTEFTLTISSLQPEDFATYYCQQYYSYPYTFGQGTKLEIKRTVAAPSVFIFPPSDEQLKSGTASVVCLLNNFYPREAKVQWKVDNALQSGNSQESVTEQDSKDSTYSLSSTLTLSKADYEKHKVYACEVTHQGLSSPVTKSFNRGEC
notes: Trispecific PD-1/VEGF/Ang1/Ang2 antagonist on an IgG4 Fc; also called trispecific construct GS01-T
For the molecule B2, the binding result was “binds”.

B3: Bi-T0Z (Fc fusion)
chain: ESKYGPPCPPCPAPEFLGGPSVFLFPPKPKDTLMISRTPEVTCVVVDVSQEDPEVQFNWYVDGVEVHNAKTKPREEQFNSTYRVVSVLTVLHQDWLNGKEYKCKVSNKGLPSSIEKTISKAKGQPREPQVYTLPPSQEEMGGAQQEECEWDPWTCEHMGSGSATGGSGSTASSGSGSATHQEECEWDPWTCEHMGGTKNQVSLTCLVKGFYPSDIAVEWESNGQPENNYKTTPPVLDSDGSFFLYSRLTVDKSRWQEGNVFSCSVMHEALHNHYTQKSLSLSLGKGGGGSGGGGSGGGGSSDTGRPFVEMYSEIPEIIHMTEGRELVIPCRVTSPNITVTLKKFPLDTLIPDGKRIIWDSRKGFIISNATYKEIGLLTCEATVNGHLYKTNYLTHRQTNTIIDVVLSPSHGIELSVGEKLVLNCTARTELNVGIDFNWEYPSSKHQHKKLVNRDLKTQSGSEMKKFLSTLTIDGVTRSDQGLYTCAASSGLMTKKNSTFVRVHEK
As for B3, the binding result is “binds”.
